{
  "source": "paper PMC1523230",
  "about": "“Structural Organization of the 19S Proteasome Lid: Insights from MS of Intact Complexes” (PLoS Biology, 2006)",
  "binders": {"B1": {"name": "Rpn11^H12 (natural protein, S. cerevisiae, UniProt P43588 1-306, looked up)", "chain": "MERLQRLMMNSKVGSADTGRDDTKETVYISSIALLKMLKHGRAGVPMEVMGLMLGEFVDDYTVNVVDVFAMPQSGTGVSVEAVDDVFQAKMMDMLKQTGRDQMVVGWYHSHPGFGCWLSSVDVNTQKSFEQLNSRAVAVVVDPIQSVKGKVVIDAFRLIDTGALINNLEPRQTTSNTGLLNKANIQALIHGLNRHYYSLNIDYHKTAKETKMLMNLHKEQWQSGLKMYDYEEKEESNLAATKSMVKIAEQYSKRIEEEKELTEEELKTRYVGRQDPKKHLSETADETLENNIVSVLTAGVNSVAIK", "notes": "Rpn11, subunit of the 19S proteasome lid, S. cerevisiae; tagging cassette of plasmid pT2H12 integrated directly before the stop codon of RPN11; also called modified Rpn11; source: S. cerevisiae strain RJD2909 (tag integrated at the chromosomal RPN11 locus); in lysate, then purified as the 19S lid (Ni-NTA, Sephacryl S-400 gel filtration); not shown: His12, C-terminal, kept"}, "B2": {"name": "Rpn8 (natural protein, S. cerevisiae, UniProt Q08723 1-338, looked up)", "chain": "MSLQHEKVTIAPLVLLSALDHYERTQTKENKRCVGVILGDANSSTIRVTNSFALPFEEDEKNSDVWFLDHNYIENMNEMCKKINAKEKLIGWYHSGPKLRASDLKINELFKKYTQNNPLLLIVDVKQQGVGLPTDAYVAIEQVKDDGTSTEKTFLHLPCTIEAEEAEEIGVEHLLRDVRDQAAGGLSIRLTNQLKSLKGLQSKLKDVVEYLDKVINKELPINHTILGKLQDVFNLLPNLGTPDDDEIDVENHDRINISNNLQKALTVKTNDELMVIYISNLVRSIIAFDDLIENKIQNKKIQEQRVKDKQSKVSDDSESESGDKEATAPLIQRKNKKN", "notes": "Rpn8, subunit of the 19S proteasome lid, S. cerevisiae; source: endogenous, S. cerevisiae strain RJD2909; in lysate, then co-purified with Rpn11^H12 as the 19S lid (Ni-NTA, Sephacryl S-400 gel filtration)"}, "B3": {"name": "Sem1 (natural protein, S. cerevisiae, UniProt O94742 2-89, looked up)", "chain": "STDVAAAQAQSKIDLTKKKNEEINKKSLEEDDEFEDFPIDTWANGETIKSNAVTQTNIWEENWDDVEVDDDFTNELKAELDRYKRENQ", "modifications": "N-terminal amino group acetylated (initiator methionine removed)", "notes": "Sem1, subunit of the 19S proteasome lid, S. cerevisiae (10 kDa); the initiator methionine is removed; source: endogenous, S. cerevisiae strain RJD2909; in lysate, then co-purified with Rpn11^H12 as the 19S lid (Ni-NTA, Sephacryl S-400 gel filtration)"}, "B4": {"name": "Rpn5 (natural protein, S. cerevisiae, UniProt Q12250 1-445, looked up)", "chain": "MSRDAPIKADKDYSQILKEEFPKIDSLAQNDCNSALDQLLVLEKKTRQASDLASSKEVLAKIVDLLASRNKWDDLNEQLTLLSKKHGQLKLSIQYMIQKVMEYLKSSKSLDLNTRISVIETIRVVTENKIFVEVERARVTKDLVEIKKEEGKIDEAADILCELQVETYGSMEMSEKIQFILEQMELSILKGDYSQATVLSRKILKKTFKNPKYESLKLEYYNLLVKISLHKREYLEVAQYLQEIYQTDAIKSDEAKWKPVLSHIVYFLVLSPYGNLQNDLIHKIQNDNNLKKLESQESLVKLFTTNELMRWPIVQKTYEPVLNEDDLAFGGEANKHHWEDLQKRVIEHNLRVISEYYSRITLLRLNELLDLTESQTETYISDLVNQGIIYAKVNRPAKIVNFEKPKNSSQLLNEWSHNVDELLEHIETIGHLITKEEIMHGLQAK", "notes": "Rpn5, subunit of the 19S proteasome lid, S. cerevisiae; source: endogenous, S. cerevisiae strain RJD2909; in lysate, then co-purified with Rpn11^H12 as the 19S lid (Ni-NTA, Sephacryl S-400 gel filtration)"}},
  "key": {"Rpn7 [1]": {"molecular_target": "T1, Rpn7 (S. cerevisiae, UniProt Q06103 1-429)", "T1 construct": "Rpn7, subunit of the 19S proteasome lid, S. cerevisiae; source: endogenous, S. cerevisiae strain RJD2909; in lysate, then co-purified with Rpn11^H12 as the 19S lid (Ni-NTA, Sephacryl S-400 gel filtration)", "T1 sequence (looked up)": "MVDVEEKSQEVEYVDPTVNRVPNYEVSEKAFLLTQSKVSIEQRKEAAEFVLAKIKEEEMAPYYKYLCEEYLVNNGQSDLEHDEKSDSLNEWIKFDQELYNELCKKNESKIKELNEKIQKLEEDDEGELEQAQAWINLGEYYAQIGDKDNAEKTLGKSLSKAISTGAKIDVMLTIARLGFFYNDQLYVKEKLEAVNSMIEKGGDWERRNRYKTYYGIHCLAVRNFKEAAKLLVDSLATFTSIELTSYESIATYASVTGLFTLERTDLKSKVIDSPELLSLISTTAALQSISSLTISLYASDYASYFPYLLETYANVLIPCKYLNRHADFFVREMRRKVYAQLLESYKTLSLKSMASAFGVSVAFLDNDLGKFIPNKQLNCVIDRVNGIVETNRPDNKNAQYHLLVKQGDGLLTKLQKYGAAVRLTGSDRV", "assay": "affinity purification with mass spectrometry; Rpn11^H12 held on Ni-NTA from yeast lysate, gel filtration; subunits identified by MALDI-TOF/TOF peptide mapping and database search", "conditions": "partners not purified"}, "Rpn8": {"molecular_target": "B2", "assay": "affinity purification with mass spectrometry; Rpn11^H12 held on Ni-NTA from yeast lysate, gel filtration; subunits identified by MALDI-TOF/TOF peptide mapping and database search", "conditions": "partners not purified"}, "Rpn3 [2]": {"molecular_target": "T2, Rpn3 (S. cerevisiae, UniProt P40016 17-523)", "T2 construct": "Rpn3, subunit of the 19S proteasome lid, S. cerevisiae; from the measured mass the first 16 residues are truncated; source: endogenous, S. cerevisiae strain RJD2909; in lysate, then co-purified with Rpn11^H12 as the 19S lid (Ni-NTA, Sephacryl S-400 gel filtration)", "T2 sequence (looked up)": "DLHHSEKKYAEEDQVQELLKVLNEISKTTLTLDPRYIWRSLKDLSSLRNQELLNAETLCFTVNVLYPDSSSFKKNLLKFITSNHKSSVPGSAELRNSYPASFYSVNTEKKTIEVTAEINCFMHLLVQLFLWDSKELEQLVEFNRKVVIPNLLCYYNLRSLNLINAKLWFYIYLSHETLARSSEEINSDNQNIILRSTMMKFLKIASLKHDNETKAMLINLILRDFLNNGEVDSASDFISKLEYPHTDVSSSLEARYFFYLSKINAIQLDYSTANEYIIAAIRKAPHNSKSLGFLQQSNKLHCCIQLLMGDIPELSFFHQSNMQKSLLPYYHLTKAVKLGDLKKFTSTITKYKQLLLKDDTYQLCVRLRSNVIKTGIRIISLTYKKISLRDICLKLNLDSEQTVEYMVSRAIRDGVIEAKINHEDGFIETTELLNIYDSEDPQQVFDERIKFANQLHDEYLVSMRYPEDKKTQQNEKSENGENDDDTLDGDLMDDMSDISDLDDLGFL", "assay": "native MS; intact endogenous 19S lid purified through Rpn11^H12, buffer exchanged into 1 M ammonium acetate, nano-electrospray on a high-mass Q-TOF; MS/MS of the 47+ charge state at 100 and 120 V", "conditions": "both partners purified"}, "Rpn5 [3]": {"molecular_target": "B4", "assay": "native MS; intact endogenous 19S lid purified through Rpn11^H12, buffer exchanged into 1 M ammonium acetate, nano-electrospray on a high-mass Q-TOF; MS/MS of the 47+ charge state at 100 and 120 V", "conditions": "both partners purified"}, "Rpn6": {"molecular_target": "T3, Rpn6 (S. cerevisiae, UniProt Q12377 1-434)", "T3 construct": "Rpn6, subunit of the 19S proteasome lid, S. cerevisiae; Present in substoichiometric amounts: a part of the purified lid complexes lacks Rpn6; also called Rnp6; source: endogenous, S. cerevisiae strain RJD2909; in lysate, then co-purified with Rpn11^H12 as the 19S lid (Ni-NTA, Sephacryl S-400 gel filtration)", "T3 sequence (looked up)": "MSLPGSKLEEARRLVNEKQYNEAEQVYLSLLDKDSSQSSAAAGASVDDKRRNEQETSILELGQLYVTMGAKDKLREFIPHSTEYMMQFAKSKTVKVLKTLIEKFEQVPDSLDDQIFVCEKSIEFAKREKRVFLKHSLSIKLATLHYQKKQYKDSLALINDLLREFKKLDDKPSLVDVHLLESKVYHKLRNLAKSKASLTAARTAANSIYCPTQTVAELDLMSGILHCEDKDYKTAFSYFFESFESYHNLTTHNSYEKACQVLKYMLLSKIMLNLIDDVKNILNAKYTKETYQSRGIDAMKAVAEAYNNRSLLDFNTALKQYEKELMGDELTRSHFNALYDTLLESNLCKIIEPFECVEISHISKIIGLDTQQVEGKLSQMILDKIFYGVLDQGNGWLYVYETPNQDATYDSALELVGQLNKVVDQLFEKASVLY", "assay": "native MS; 185-kDa subcomplex present in the solution of the purified lid, 1 M ammonium acetate; 34+ charge state isolated, MS/MS with argon at 130 V", "conditions": "both partners purified"}, "Rpn9": {"molecular_target": "T4, Rpn9 (S. cerevisiae, UniProt Q04062 1-393)", "T4 construct": "Rpn9, subunit of the 19S proteasome lid, S. cerevisiae; source: endogenous, S. cerevisiae strain RJD2909; in lysate, then co-purified with Rpn11^H12 as the 19S lid (Ni-NTA, Sephacryl S-400 gel filtration)", "T4 sequence (looked up)": "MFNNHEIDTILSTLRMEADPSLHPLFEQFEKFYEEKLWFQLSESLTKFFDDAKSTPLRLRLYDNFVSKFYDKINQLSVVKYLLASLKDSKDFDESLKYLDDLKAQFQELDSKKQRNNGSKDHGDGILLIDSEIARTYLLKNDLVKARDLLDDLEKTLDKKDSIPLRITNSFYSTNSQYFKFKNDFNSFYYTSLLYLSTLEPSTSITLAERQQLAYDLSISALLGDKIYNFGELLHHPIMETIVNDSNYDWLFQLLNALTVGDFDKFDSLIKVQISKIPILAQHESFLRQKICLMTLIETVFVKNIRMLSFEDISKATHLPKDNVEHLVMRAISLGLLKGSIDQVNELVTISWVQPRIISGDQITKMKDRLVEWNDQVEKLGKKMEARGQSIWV", "assay": "native MS; 185-kDa subcomplex present in the solution of the purified lid, 1 M ammonium acetate; 34+ charge state isolated, MS/MS with argon at 130 V", "conditions": "both partners purified"}, "Rpn5 [4]": {"molecular_target": "B4", "assay": "cross-linking; purified lid 4.8 uM, BS3 at a ratio of 1:50, 2 h on ice, 200 mM NaCl, 50 mM HEPES pH 7.5; bands A-F of a Bis-Tris 4-12% denaturing gel digested with trypsin and identified by MALDI-TOF/TOF MS and MS/MS", "conditions": "both partners purified"}, "Rpn11^H12": {"molecular_target": "B1", "assay": "affinity purification with mass spectrometry; Rpn11^H12 held on Ni-NTA from yeast lysate, gel filtration; subunits identified by MALDI-TOF/TOF peptide mapping and database search", "conditions": "partners not purified"}, "Rpn3 [5]": {"molecular_target": "T2, Rpn3", "assay": "cross-linking; purified lid 4.8 uM, BS3 at a ratio of 1:50, 2 h on ice, 200 mM NaCl, 50 mM HEPES pH 7.5; bands A-F of a Bis-Tris 4-12% denaturing gel digested with trypsin and identified by MALDI-TOF/TOF MS and MS/MS", "conditions": "both partners purified"}, "Rpn7 [6]": {"molecular_target": "T1, Rpn7", "assay": "cross-linking; purified lid 4.8 uM, BS3 at a ratio of 1:50, 2 h on ice, 200 mM NaCl, 50 mM HEPES pH 7.5; bands A-F of a Bis-Tris 4-12% denaturing gel digested with trypsin and identified by MALDI-TOF/TOF MS and MS/MS", "conditions": "both partners purified"}},
  "data": [
    {"binder": "B1", "values": [
      {"measurement": "binding result", "setting": "Rpn7 [1]", "value": "binds"},
      {"measurement": "binding result", "setting": "Rpn8", "value": "binds"},
      {"measurement": "binding result", "setting": "Rpn3 [2]", "value": "binds"},
      {"measurement": "binding result", "setting": "Rpn5 [3]", "value": "binds"}
    ]},
    {"binder": "B2", "values": [
      {"measurement": "binding result", "setting": "Rpn6", "value": "binds"},
      {"measurement": "binding result", "setting": "Rpn9", "value": "binds"},
      {"measurement": "binding result", "setting": "Rpn5 [4]", "value": "binds"}
    ]},
    {"binder": "B3", "values": [
      {"measurement": "binding result", "setting": "Rpn11^H12", "value": "binds"},
      {"measurement": "binding result", "setting": "Rpn3 [5]", "value": "binds"},
      {"measurement": "binding result", "setting": "Rpn7 [6]", "value": "binds"}
    ]},
    {"binder": "B4", "values": [
      {"measurement": "binding result", "setting": "Rpn3 [5]", "value": "binds"}
    ]}
  ]
}
